Data taken from IntAct's records for PubMed 19130088.

B1: Calcium-dependent protein kinase 4 (Arabidopsis thaliana (Mouse-ear cress)), Q38869 (parent)
chain: MEKPNPRRPSNSVLPYETPRLRDHYLLGKKLGQGQFGTTYLCTEKSSSANYACKSIPKRKLVCREDYEDVWREIQIMHHLSEHPNVVRIKGTYEDSVFVHIVMEVCEGGELFDRIVSKGCFSEREAAKLIKTILGVVEACHSLGVMHRDLKPENFLFDSPSDDAKLKATDFGLSVFYKPGQYLYDVVGSPYYVAPEVLKKCYGPEIDVWSAGVILYILLSGVPPFWAETESGIFRQILQGKIDFKSDPWPTISEGAKDLIYKMLDRSPKKRISAHEALCHPWIVDEHAAPDKPLDPAVLSRLKQFSQMNKIKKMALRVIAERLSEEEIGGLKELFKMIDTDNSGTITFEELKAGLKRVGSELMESEIKSLMDAADIDNSGTIDYGEFLAATLHINKMEREENLVVAFSYFDKDGSGYITIDELQQACTEFGLCDTPLDDMIKEIDLDNDGKIDFSEFTAMMKKGDGVGRSRTMRNNLNFNIAEAFGVEDTSSTAKSDDSPK
partner: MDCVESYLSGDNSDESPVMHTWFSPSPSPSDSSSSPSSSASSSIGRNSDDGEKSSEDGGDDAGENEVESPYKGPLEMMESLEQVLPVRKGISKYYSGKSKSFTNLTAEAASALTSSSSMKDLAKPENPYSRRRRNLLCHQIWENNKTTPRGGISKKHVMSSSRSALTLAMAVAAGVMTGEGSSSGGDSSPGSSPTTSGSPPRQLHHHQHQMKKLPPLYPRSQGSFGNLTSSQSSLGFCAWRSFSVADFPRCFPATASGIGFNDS

Variants of: B1
Settings: with o3l1_arath O3L1, Q9C593

Effect of a mutation on the interaction, disrupting interaction:
D149A;F305A
D170A;F305A
D170A
D149A
